The subject of this series is K4 kissing-loop RNA reporter. Nature of the series: apparent KD of K4 kissing-loop reporter; higher = weaker reporter binding. The following applies: Eterna round: R107. As for the experimental part: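 RNA-MaP round R107: designed RNA switches with theophylline, tryptophan, arginine or FMN aptamers are transcribed on-chip within common flanks. They are titrated with a labelled K4 kissing-loop RNA reporter in RNA-MaP buffer (100 mM Tris pH 7.5, 80 mM KCl, 4 mM MgCl2), without ligand or with the indicated ligand. Median apparent KD per design.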

The mark [1] stands for this setting: input ligand: theophylline 20 uM.
Setting [2] is: input ligand: tryptophan 2.4 mM.
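Note: bound reporter read as fluorescence of individual clusters on recovered sequencing chips by microscopy, with normalized cluster intensities fitted with a binding model.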

In the case of “GUGCAGUGAUGUUGCACGAGGAAAGACGAUACCAGCCGUAAAUAAGGCCCUUGGCAGCGUAGGCUAGCAUAAAGCAUGCUAGUCC [Edeson]”, the “apparent KD of K4 kissing-loop reporter” value is, setting by setting: (input ligand: FMN 200 uM) 0.131 µM; (input ligand: arginine 13.2 mM) 0.0988 µM; (input ligand: none) 0.111 µM; under setting [1], 0.0984 µM; under setting [2], 0.078 µM.
As to “GUGCAGUGAUGUUGCACGAGGAAAGACGAUACCAGCCGUAAAUAAGGCCCUUGGCAGCGUGGGCUAGCAUAAAGCAUGCUAGUCU [Edbemavela]”, the “apparent KD of K4 kissing-loop reporter” value was 0.126 µM (input ligand: FMN 200 uM); 0.0977 µM (input ligand: arginine 13.2 mM); 0.113 µM (input ligand: none); 0.111 µM under setting [1]; 0.0996 µM under setting [2].
For the sequence “GUGGUGGUGGCGGCCGCCACUGAAGAUAAUGAGUGAUGUUCAAGUGAUGUUAAUAAGAACAGUAUCAGGACCGGGCCACCACCAC [Default title]”, the “apparent KD of K4 kissing-loop reporter” value reads like this: (input ligand: FMN 200 uM) 0.0375 µM; (input ligand: arginine 13.2 mM) 0.0277 µM; (input ligand: none) 0.0341 µM; under setting [1], 0.0254 µM; under setting [2], 0.0338 µM.
For the sequence “GUUACGCAUGGAAGGAGCGCACUCCGAUUGGACGACACAGUGAUGUUGUGGUUCGUUCGAAUGCAGGUAGGUCGCCAUGUGUAAC [Ex Arginine B K4 19]”, the “apparent KD of K4 kissing-loop reporter” value is, setting by setting: (input ligand: FMN 200 uM) 0.159 µM; (input ligand: arginine 13.2 mM) 0.148 µM; (input ligand: none) 0.15 µM; under setting [1], 0.134 µM; under setting [2], 0.148 µM.
In the case of “GUUACGCAUGGAAGGAGCGCGAAAAUUUAUAGUGAGUGAUGUUCACAAAUAAGAAUAAUAACGCAGGUAGGUCGCCAUGUGUAAC [Ex Arginine B K4 5]”, the “apparent KD of K4 kissing-loop reporter” value reads like this: (input ligand: FMN 200 uM) 0.0871 µM; (input ligand: arginine 13.2 mM) 0.0868 µM; (input ligand: none) 0.105 µM; under setting [1], 0.118 µM; under setting [2], 0.0952 µM.
Turning to “GUUAUGGACCUUUUGAUCGUUCGUAGCGAUACCAGACAAUGGGCAGUCCCUUGGCAGCGCUAAUUGAGUGAUGUUCAAACGUGCA [theeternabot_exclusion_KL_Theo_A_46]”, the “apparent KD of K4 kissing-loop reporter” value stood at 0.73 µM (input ligand: FMN 200 uM); 0.309 µM (input ligand: arginine 13.2 mM); 0.68 µM (input ligand: none); 0.331 µM under setting [1]; 0.364 µM under setting [2].
Take “UAACUGCAGUGAUGUUGCAGAUGUCCUGACUAGGAUAUCAGGAAACUGAGAAGGAGUCCCUUCUACACUGCAGAGAAGGAGGACA [[K1]-[K2]-[F1]'-[F1]-[F2]-[F2]'-[K]'-[F]''_Design1]”: the “apparent KD of K4 kissing-loop reporter” value was determined as 0.283 µM (input ligand: FMN 200 uM); 0.125 µM (input ligand: arginine 13.2 mM); 0.145 µM (input ligand: none); 0.125 µM under setting [1]; 0.139 µM under setting [2].
Turning to “UAACUUGCAGUGAUGUUGCAAGAACUGGAUACCAGCAUGGAAACAUGCCCUUGGCAGCCAGAAGGUAUCCUACAUCACAGAUACU [Design2]”, the “apparent KD of K4 kissing-loop reporter” value (input ligand: FMN 200 uM) stood at 0.22 µM; the “apparent KD of K4 kissing-loop reporter” value (input ligand: arginine 13.2 mM) came to 0.202 µM; the “apparent KD of K4 kissing-loop reporter” value (input ligand: none) turned out to be 0.214 µM; the “apparent KD of K4 kissing-loop reporter” value under setting [1] was 0.226 µM; the “apparent KD of K4 kissing-loop reporter” value under setting [2] amounted to 0.197 µM.
On to “UAACUUGCAGUGAUGUUGCAAGAACUGGAUACCAGCAUGGAAACAUGCCCUUGGCAGCCAGAAGGUAUCCUCUGCAAGAGAUACA [Design1]”, for which the “apparent KD of K4 kissing-loop reporter” value was 0.318 µM (input ligand: FMN 200 uM); 0.274 µM (input ligand: arginine 13.2 mM); 0.311 µM (input ligand: none); 0.289 µM under setting [1]; 0.292 µM under setting [2].
The like results for “UAAGAUUCUGUCUCAUUGAGACAGAAUCAACGAGGACCGGUACGGCCGCCACUCGGGUCCUAGAGUGAUGUUCUAAUAAUAUAAU [AK1 SS Tryptophan A]” were, in that order, 0.283 µM, 0.351 µM, 0.296 µM, 0.369 µM and 0.176 µM.
Turning to “UAAUAAUAAUGAUAAUAAUCAAGUGGUGGACGAGGACCGGUACGGCCGCCACUCGAAAAUGCAGUGAUGUUGUAAUACGGAUAAU [Exclusion - Tryptophan A (Freestyle 2)]”, the “apparent KD of K4 kissing-loop reporter” value is, setting by setting: (input ligand: FMN 200 uM) 0.0983 µM; (input ligand: arginine 13.2 mM) 0.18 µM; (input ligand: none) 0.133 µM; under setting [1], 0.203 µM; under setting [2], 0.0943 µM.
Consider “UAAUGGUAAGUGAUGUUUACCUGGAACGAUACCAGUCGCCAUGAGGACCCUUGGCAGCGUCACACAGCCUUCUAGUUGUGGUCUU [theeternabot_sameState_KL_Theo_A_46]”, for which the “apparent KD of K4 kissing-loop reporter” value (input ligand: FMN 200 uM) amounted to 0.418 µM; the “apparent KD of K4 kissing-loop reporter” value (input ligand: arginine 13.2 mM) is 0.298 µM; the “apparent KD of K4 kissing-loop reporter” value (input ligand: none) worked out at 0.347 µM; the “apparent KD of K4 kissing-loop reporter” value under setting [1] came out at 0.499 µM; the “apparent KD of K4 kissing-loop reporter” value under setting [2] turned out to be 0.353 µM.
“UACUAUAUUCUGUCGUUUAUAUUAUUUUGUCAGGAUAUCGUUUAUUCGAGAAGGGACACUAUCUAGUGAUGUUAGAUUUUUCUUU [JR_Nu_ExcFMNA_Sub029]”: the “apparent KD of K4 kissing-loop reporter” value is, setting by setting: (input ligand: FMN 200 uM) 0.0558 µM; (input ligand: arginine 13.2 mM) 0.13 µM; (input ligand: none) 0.0867 µM; under setting [1], 0.108 µM; under setting [2], 0.0677 µM.
For the sequence “UACUUAUUUUUUAACUUAAAUUUUUCAGAAGGAGCGUGAUCAUUCACAGGUAGGUCGCUGAACUAGUGAUGUUAGUUUUAAUUUU [JR_Nu_ExcArginiA_Sub024]”, the “apparent KD of K4 kissing-loop reporter” value stood at 0.0629 µM (input ligand: FMN 200 uM); 0.115 µM (input ligand: arginine 13.2 mM); 0.0639 µM (input ligand: none); 0.104 µM under setting [1]; 0.0565 µM under setting [2].
The like results for “UAGCAUUUGCUCGAGUGAUGUUCGAGCGAAGGAGCGCGAGAAAUCGCAGGUAGGUCGCGCUCGAACUAUGAGCGAUCAUUUAUUG [Arg A Ex t2d]” were, in that order, 0.363 µM, 0.232 µM, 0.312 µM, 0.395 µM and 0.331 µM.
With “UAGUCCUAGUGAUGGUUAUCACGUGGUGGGCGAGGACCGGUACGGCCGCCACUCGACUAUGCAGUGAUGUUGCAAUCCGGACAAU [Exclusion - Tryptophan A (Freestyle 16)]”, the “apparent KD of K4 kissing-loop reporter” value is 0.319 µM (input ligand: FMN 200 uM); 0.411 µM (input ligand: arginine 13.2 mM); 0.423 µM (input ligand: none); 0.353 µM under setting [1]; 0.116 µM under setting [2].
As to “UAUAAUUCGGCGGCCGCCACUGACCAUAGCCUUCGAUGGCCAGUGAUGUUGGCCUCUGGCUCUAACAGGACCGGGCCGAAUUGUG [Reresoza]”, the “apparent KD of K4 kissing-loop reporter” value reads like this: (input ligand: FMN 200 uM) 0.211 µM; (input ligand: arginine 13.2 mM) 0.164 µM; (input ligand: none) 0.18 µM; under setting [1], 0.138 µM; under setting [2], 0.12 µM.
As for “UAUAGAAACGUCCUAUCAGUAAAAUGGGAAGGAGCGAGGAAGGACUCAGGUAGGUCGCCCAAUAACCUUAGUGAUGUUAAGGAAA [Version 2]”, the “apparent KD of K4 kissing-loop reporter” value (input ligand: FMN 200 uM) came to 0.155 µM; the “apparent KD of K4 kissing-loop reporter” value (input ligand: arginine 13.2 mM) was determined as 0.128 µM; the “apparent KD of K4 kissing-loop reporter” value (input ligand: none) stood at 0.131 µM; the “apparent KD of K4 kissing-loop reporter” value under setting [1] was 0.112 µM; the “apparent KD of K4 kissing-loop reporter” value under setting [2] came to 0.122 µM.
The matching figures for “UAUAUAGUGACGGCCGCCACUAUAGUGAUGUUAUUGUUAGAGUGAUGUUUUGUUGUUUAAUUUUGUAGGACCGGGUUAUAUGUUA [tbbtmullin]”: 0.632 µM, 0.418 µM, 0.504 µM, 0.497 µM and 0.446 µM.
Consider “UAUAUAGUGACGGCCGCCACUAUAUUAAUGUUUUUGUUAGAGUGAUGUUUUGUUUUUUAAUUUUAUAGGACCGGGUUAUAUGUUA [xnxmullin]”, for which the “apparent KD of K4 kissing-loop reporter” value came out at 0.275 µM (input ligand: FMN 200 uM); 0.155 µM (input ligand: arginine 13.2 mM); 0.253 µM (input ligand: none); 0.335 µM under setting [1]; 0.188 µM under setting [2].
The matching figures for “UAUUAAUUGACGGCCGCCACUAUUGUGAUUUAUUUGUUUGAGUGAUGUUUUGAUGUUUGAUUUUGUAGGACCGGGUUAUGUGUUA [zwzcmullin]”: 0.918 µM, 0.768 µM, 0.954 µM, 0.816 µM and 0.711 µM.
“UAUUCUAAUGCGGCCGCCACUGGAAGUGAUGUUUCCUCUGGCUAUCAUUUCGGACGGUAUUGUCCCAGGACCGGGCAUCCCUCUC [theeternabot_exclusion_KL_Trp_B_4]”: the “apparent KD of K4 kissing-loop reporter” value (input ligand: FMN 200 uM) was 0.109 µM; the “apparent KD of K4 kissing-loop reporter” value (input ligand: arginine 13.2 mM) turned out to be 0.101 µM; the “apparent KD of K4 kissing-loop reporter” value (input ligand: none) came out at 0.106 µM; the “apparent KD of K4 kissing-loop reporter” value under setting [1] was 0.104 µM; the “apparent KD of K4 kissing-loop reporter” value under setting [2] amounted to 0.103 µM.

The values are drawn from the supplement of paper PMC9170038.
